Experimental data from patent US20020150536A1 (published 2002).
Each block holds one binder with its values, some of them ahead of it.

Tests used:
[1] = target: T1, αvβ3 integrin (human, UniProt P06756 31-1048; P05106 27-788); experiment: competition ELISA, displacement of biotinylated vitronectin (10 nM) from immobilized αvβ3 (FIG. 4A)
T1 construct: Native detergent-extracted heterodimer, adsorbed to microtiter wells; also called integrin αvβ3; purified human αvβ3
Method: (§1) Briefly, proteins were dialyzed into 0.1 M NaHCO₃, 0.1 M NaCl. N-hydroxysuccinimido-LC-biotin (Pierce) was dissolved at 1 mg/mL in DMSO and added to the protein at a ratio of 0.1 mg biotin per 1 mg protein. The reaction was allowed to rotate at room temperature for 2 hours. Biotinylated proteins were dialyzed into phosphate-buffered saline and their concentrations determined by absorbance at 280 nm. […] Absorbance was read at 405 nm.

[2] = target: T1, αvβ3 integrin; experiment: competition ELISA, displacement of biotinylated fibrinogen (6 nM) from immobilized αvβ3 (FIG. 4B)
Method: as §1

[3] = target: T2, αIIbβ3 (UniProt P08514 32-1039; P05106 27-788); experiment: competition ELISA, displacement of biotinylated fibrinogen (6 nM) from immobilized αIIbβ3 (FIG. 4C)
T2 construct: Bought purified protein, adsorbed to microtiter wells; also called integrin αIIbβ3; GPIIbIIIa
Method: An estimate of the maximum absorbance value was determined for each ligand/integrin pair in the absence of competitor. The baseline absorbance value was determined by adding 5 mM EDTA to the incubation buffer.
as §1

T1 sequence (P06756 31-1048, form in doubt, chain 1 of 2): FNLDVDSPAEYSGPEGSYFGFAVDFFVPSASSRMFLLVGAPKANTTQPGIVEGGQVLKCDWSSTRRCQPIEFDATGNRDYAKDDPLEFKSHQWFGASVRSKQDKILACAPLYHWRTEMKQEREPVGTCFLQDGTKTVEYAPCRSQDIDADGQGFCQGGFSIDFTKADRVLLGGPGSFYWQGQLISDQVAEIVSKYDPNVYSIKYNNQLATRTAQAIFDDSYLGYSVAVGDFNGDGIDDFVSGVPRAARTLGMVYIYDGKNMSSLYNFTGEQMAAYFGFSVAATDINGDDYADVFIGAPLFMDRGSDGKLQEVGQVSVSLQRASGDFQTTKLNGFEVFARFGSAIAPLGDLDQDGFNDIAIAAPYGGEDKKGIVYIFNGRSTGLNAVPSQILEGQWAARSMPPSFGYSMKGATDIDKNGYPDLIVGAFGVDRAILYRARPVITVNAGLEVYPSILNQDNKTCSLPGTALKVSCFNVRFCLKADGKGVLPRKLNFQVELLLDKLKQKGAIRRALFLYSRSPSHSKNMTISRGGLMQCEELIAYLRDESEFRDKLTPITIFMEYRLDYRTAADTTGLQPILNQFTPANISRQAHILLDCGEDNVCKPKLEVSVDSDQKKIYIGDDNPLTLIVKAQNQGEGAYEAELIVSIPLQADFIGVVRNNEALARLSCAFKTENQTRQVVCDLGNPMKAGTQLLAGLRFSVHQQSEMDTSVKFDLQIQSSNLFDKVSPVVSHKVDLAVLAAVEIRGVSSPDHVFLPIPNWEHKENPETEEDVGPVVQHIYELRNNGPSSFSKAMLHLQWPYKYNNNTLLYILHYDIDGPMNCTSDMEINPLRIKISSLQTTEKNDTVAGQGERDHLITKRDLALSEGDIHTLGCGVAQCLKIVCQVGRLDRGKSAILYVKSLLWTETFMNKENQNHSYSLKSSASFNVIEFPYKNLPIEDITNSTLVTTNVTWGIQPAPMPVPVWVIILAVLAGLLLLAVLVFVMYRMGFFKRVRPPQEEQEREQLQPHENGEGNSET
T1 sequence (P05106 27-788, form in doubt, chain 2 of 2): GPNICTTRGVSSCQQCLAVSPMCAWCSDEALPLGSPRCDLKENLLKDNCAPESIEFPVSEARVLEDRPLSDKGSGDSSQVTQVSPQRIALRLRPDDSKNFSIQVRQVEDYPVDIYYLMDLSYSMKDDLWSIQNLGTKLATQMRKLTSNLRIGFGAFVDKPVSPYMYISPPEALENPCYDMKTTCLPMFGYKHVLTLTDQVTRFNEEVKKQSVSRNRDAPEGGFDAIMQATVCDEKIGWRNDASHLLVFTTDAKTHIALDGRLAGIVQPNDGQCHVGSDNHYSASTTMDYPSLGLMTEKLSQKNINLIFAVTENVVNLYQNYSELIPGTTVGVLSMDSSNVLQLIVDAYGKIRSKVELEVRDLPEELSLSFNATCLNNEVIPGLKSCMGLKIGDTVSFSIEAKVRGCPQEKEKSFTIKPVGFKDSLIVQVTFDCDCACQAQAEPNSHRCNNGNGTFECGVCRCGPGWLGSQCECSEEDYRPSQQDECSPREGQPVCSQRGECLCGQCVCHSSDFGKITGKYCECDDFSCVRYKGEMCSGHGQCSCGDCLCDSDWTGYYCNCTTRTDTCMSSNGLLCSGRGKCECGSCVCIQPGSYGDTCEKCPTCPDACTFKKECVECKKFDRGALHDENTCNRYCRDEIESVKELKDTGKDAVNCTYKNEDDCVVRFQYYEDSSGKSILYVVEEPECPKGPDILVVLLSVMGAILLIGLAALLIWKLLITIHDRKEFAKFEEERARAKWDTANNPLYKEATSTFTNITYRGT

- IC50 [1]: 59 nM
B1: Vitronectin (ligand, human, UniProt P04004 20-478, looked up)
chain: DQESCKGRCTEGFNVDKKCQCDELCSYYQSCCTDYTAECKPQVTRGDVFTMPEDEYTVYDDGEEKNNATVHEQVGGPSLTSDLQAQSKGNPEQTPVLKPEEEAPAPEVGASKPEGIDSRPETLHPGRPQPPAEEELCSGKPFDAFTDLKNGSLFAFRGQYCYELDEKAVRPGYPKLIRDVWGIEGPIDAAFTRINCQGKTYLFKGSQYWRFEDGVLDPDYPRNISDGFDGIPDNVDAALALPAHSYSGRERVYFFKGKQYWEYQFQHQPSQEECEGSSLSAVFEHFAMMQRDSWEDIFELLFWGRTSAGTRQPQFISRDWHGVPGQVDAAMAGRIYISGMAPRPSLAKKQRFRHRNRKGYRSQRGHSRGRNQNSRRPSRATWLSLFSSEESNLGANNYDDYRMDWLVPATCEPIQSVFFFSGDKYYRVNLRTRRVDTVDPPYPRSIAQYWLGCPAPGHL
notes: also called biotinylated vitronectin; unmodified vitronectin

- IC50 [2]: 43 nM
- IC50 [3]: 15 nM
B2: Fibrinogen (ligand)
chain 1: ADSGEGDFLAEGGGVRGPRVVERHQSACKDSDWPFCSDEDWNYKCPSGCRMKGLIDEVNQDFTNRINKLKNSLFEYQKNNKDSHSLTTNIMEILRGDFSSANNRDNTYNRVSEDLRSRIEVLKRKVIEKVQHIQLLQKNVRAQLVDMKRLEVDIDIKIRSCRGSCSRALAREVDLKDYEDQQKQLEQVIAKDLLPSRDRQHLPLIKMKPVPDLVPGNFKSQLQKVPPEWKALTDMPQMRMELERPGGNEITRGGSTSYGTGSETESPRNPSSAGSWNSGSSGPGSTGNRNPGSSGTGGTATWKPGSSGPGSTGSWNSGSSGTGSTGNQNPGSPRPGSTGTWNPGSSERGSAGHWTSESSVSGSTGQWHSESGSFRPDSPGSGNARPNNPDWGTFEEVSGNVSPGTRREYHTEKLVTSKGDKELRTGKEKVTSGSTTTTRRSCSKTVTKTVIGPDGHKEVTKEVVTSEDGSDCPEAMDLGTLSGIGTLDGFRHRHPDEAAFFDTASTGKTFPGFFSPMLGEFVSETESRGSESGIFTNTKESSSHHPGIAEFPSRGKSSSYSKQFTSSTSYNRGDSTFESKSYKMADEAGSEADHEGTHSTKRGHAKSRPV
chain 2: QGVNDNEEGFFSARGHRPLDKKREEAPSLRPAPPPISGGGYRARPAKAAATQKKVERKAPDAGGCLHADPDLGVLCPTGCQLQEALLQQERPIRNSVDELNNNVEAVSQTSSSSFQYMYLLKDLWQKRQKQVKDNENVVNEYSSELEKHQLYIDETVNSNIPTNLRVLRSILENLRSKIQKLESDVSAQMEYCRTPCTVSCNIPVVSGKECEEIIRKGGETSEMYLIQPDSSVKPYRVYCDMNTENGGWTVIQNRQDGSVDFGRKWDPYKQGFGNVATNTDGKNYCGLPGEYWLGNDKISQLTRMGPTELLIEMEDWKGDKVKAHYGGFTVQNEANKYQISVNKYRGTAGNALMDGASQLMGENRTMTIHNGMFFSTYDRDNDGWLTSDPRKQCSKEDGGGWWYNRCHAANPNGRYYWGGQYTWDMAKHGTDDGVVWMNWKGSWYSMRKMSMKIRPFFPQQ
chain 3: YVATRDNCCILDERFGSYCPTTCGIADFLSTYQTKVDKDLQSLEDILHQVENKTSEVKQLIKAIQLTYNPDESSKPNMIDAATLKSRKMLEEIMKYEASILTHDSSIRYLQEIYNSNNQKIVNLKEKVAQLEAQCQEPCKDTVQIHDITGKDCQDIANKGAKQSGLYFIKPLKANQQFLVYCEIDGSGNGWTVFQKRLDGSVDFKKNWIQYKEGFGHLSPTGTTEFWLGNEKIHLISTQSAIPYALRVELEDWNGRTSTADYAMFKVGPEADKYRLTYAYFAGGDAGDAFDGFDFGDDPSDKFFTSHNGMQFSTWDNDNDKFEGNCAEQDGSGWWMNKCHAGHLNGVYYQGGTYSKASTPNGYDNGIIWATWKTRWYSMKKTTMKIIPFNRLTIGEGQQHHLGGAKQAGDV
notes: also called biotinylated fibrinogen; unmodified fibrinogen
